Results as given in patent US20150246136A1 (Bayer, published 2015).
“And” between values parts separate entries of the source, which are not always exact repeats. Equal entries are not always repeated.

Key:
[1] = target: T1, Carboanhydrase IX (Homo sapiens, UniProt Q16790 38-459); experiment: cell-based or functional assay
[2] = target: T1, Carboanhydrase IX; experiment: cell-based or functional assay; remark: listed apart in the source

Row | Binder | EC50 (nM) HT29 [1] | MIAPaCa 2/CA9+ IC50 [2] [nM] | EC50 (nM) SNU-5 [1]
1 | Example 282 (antibody, human IgG1, kappa, V domains shown, linker-toxophore on cysteine S) VH: QVELVESGGGLVQPGGSLRLSCAASGFTFSSYGMSWVRQAPGKGLEWVSGISSLGSTTYYADSVKGRFTISRDNSKNTLYLQMNSLRAEDTAVYYCARTGSPGTFMHGDHWGQGTLVTVSS VL: DIQMTQSPSSLSASVGDRVTITCRASQDINNYLSWYQQKPGKAPKLLIYGASNLQSGVPSRFSGSGSGTDFTLTISSLQPEDFAVYYCQQYYGRPTTFGQGTKVEIKR | < 0.01 nM | 0.05 | 
2 | Example 291 (antibody, human IgG1, kappa, V domains shown, linker-toxophore on cysteine S) VH: QVELVESGGGLVQPGGSLRLSCAASGFTFSSYGMSWVRQAPGKGLEWVSGISSLGSTTYYADSVKGRFTISRDNSKNTLYLQMNSLRAEDTAVYYCARTGSPGTFMHGDHWGQGTLVTVSS VL: DIQMTQSPSSLSASVGDRVTITCRASQDINNYLSWYQQKPGKAPKLLIYGASNLQSGVPSRFSGSGSGTDFTLTISSLQPEDFAVYYCQQYYGRPTTFGQGTKVEIKR | 27 nM | 22 | 
3 | Example 287 (antibody, human IgG1, kappa, V domains shown, linker-toxophore on cysteine S) VH: QVELVESGGGLVQPGGSLRLSCAASGFTFSSYGMSWVRQAPGKGLEWVSGISSLGSTTYYADSVKGRFTISRDNSKNTLYLQMNSLRAEDTAVYYCARTGSPGTFMHGDHWGQGTLVTVSS VL: DIQMTQSPSSLSASVGDRVTITCRASQDINNYLSWYQQKPGKAPKLLIYGASNLQSGVPSRFSGSGSGTDFTLTISSLQPEDFAVYYCQQYYGRPTTFGQGTKVEIKR | > 30 nM | 69 | 
4 | Example 283 (antibody, human IgG1, kappa, V domains shown, linker-toxophore on cysteine S) VH: QVELVESGGGLVQPGGSLRLSCAASGFTFSSYGMSWVRQAPGKGLEWVSGISSLGSTTYYADSVKGRFTISRDNSKNTLYLQMNSLRAEDTAVYYCARTGSPGTFMHGDHWGQGTLVTVSS VL: DIQMTQSPSSLSASVGDRVTITCRASQDINNYLSWYQQKPGKAPKLLIYGASNLQSGVPSRFSGSGSGTDFTLTISSLQPEDFAVYYCQQYYGRPTTFGQGTKVEIKR | 0.3 nM | 0.4 | 
5 | Example 298 (antibody, human IgG1, kappa, V domains shown, linker-toxophore on cysteine S) VH: QVELVESGGGLVQPGGSLRLSCAASGFTFSSYGMSWVRQAPGKGLEWVSGISSLGSTTYYADSVKGRFTISRDNSKNTLYLQMNSLRAEDTAVYYCARTGSPGTFMHGDHWGQGTLVTVSS VL: DIQMTQSPSSLSASVGDRVTITCRASQDINNYLSWYQQKPGKAPKLLIYGASNLQSGVPSRFSGSGSGTDFTLTISSLQPEDFAVYYCQQYYGRPTTFGQGTKVEIKR | 2.5 nM | 1.1 | 7.8 nM
6 | Example 295 (antibody, human IgG1, kappa, V domains shown, linker-toxophore on cysteine S) VH: QVELVESGGGLVQPGGSLRLSCAASGFTFSSYGMSWVRQAPGKGLEWVSGISSLGSTTYYADSVKGRFTISRDNSKNTLYLQMNSLRAEDTAVYYCARTGSPGTFMHGDHWGQGTLVTVSS VL: DIQMTQSPSSLSASVGDRVTITCRASQDINNYLSWYQQKPGKAPKLLIYGASNLQSGVPSRFSGSGSGTDFTLTISSLQPEDFAVYYCQQYYGRPTTFGQGTKVEIKR | > 100 nM | 25 | 63 nM
7 | Example 284 (antibody, human IgG1, kappa, V domains shown, linker-toxophore on cysteine S) VH: QVELVESGGGLVQPGGSLRLSCAASGFTFSSYGMSWVRQAPGKGLEWVSGISSLGSTTYYADSVKGRFTISRDNSKNTLYLQMNSLRAEDTAVYYCARTGSPGTFMHGDHWGQGTLVTVSS VL: DIQMTQSPSSLSASVGDRVTITCRASQDINNYLSWYQQKPGKAPKLLIYGASNLQSGVPSRFSGSGSGTDFTLTISSLQPEDFAVYYCQQYYGRPTTFGQGTKVEIKR | 0.7 nM and 1.6 nM | 0.9 | 3 nM and 2.2 nM
8 | Example 294 (antibody, human IgG1, kappa, V domains shown, linker-toxophore on cysteine S) VH: QVELVESGGGLVQPGGSLRLSCAASGFTFSSYGMSWVRQAPGKGLEWVSGISSLGSTTYYADSVKGRFTISRDNSKNTLYLQMNSLRAEDTAVYYCARTGSPGTFMHGDHWGQGTLVTVSS VL: DIQMTQSPSSLSASVGDRVTITCRASQDINNYLSWYQQKPGKAPKLLIYGASNLQSGVPSRFSGSGSGTDFTLTISSLQPEDFAVYYCQQYYGRPTTFGQGTKVEIKR | 13.6 nM | 1 | 21.4 nM
9 | Example 300 (antibody, human IgG1, kappa, V domains shown, linker-toxophore on cysteine S) VH: QVELVESGGGLVQPGGSLRLSCAASGFTFSSYGMSWVRQAPGKGLEWVSGISSLGSTTYYADSVKGRFTISRDNSKNTLYLQMNSLRAEDTAVYYCARTGSPGTFMHGDHWGQGTLVTVSS VL: DIQMTQSPSSLSASVGDRVTITCRASQDINNYLSWYQQKPGKAPKLLIYGASNLQSGVPSRFSGSGSGTDFTLTISSLQPEDFAVYYCQQYYGRPTTFGQGTKVEIKR | 5 nM | 0.3 | 
10 | Example 290 (antibody, human IgG1, kappa, V domains shown, linker-toxophore on lysine NH) VH: QVELVESGGGLVQPGGSLRLSCAASGFTFSSYGMSWVRQAPGKGLEWVSGISSLGSTTYYADSVKGRFTISRDNSKNTLYLQMNSLRAEDTAVYYCARTGSPGTFMHGDHWGQGTLVTVSS VL: DIQMTQSPSSLSASVGDRVTITCRASQDINNYLSWYQQKPGKAPKLLIYGASNLQSGVPSRFSGSGSGTDFTLTISSLQPEDFAVYYCQQYYGRPTTFGQGTKVEIKR | 115 nM | 1.9 | 84 nM
11 | Example 286 (antibody, human IgG1, kappa, V domains shown, linker-toxophore on cysteine S) VH: QVELVESGGGLVQPGGSLRLSCAASGFTFSSYGMSWVRQAPGKGLEWVSGISSLGSTTYYADSVKGRFTISRDNSKNTLYLQMNSLRAEDTAVYYCARTGSPGTFMHGDHWGQGTLVTVSS VL: DIQMTQSPSSLSASVGDRVTITCRASQDINNYLSWYQQKPGKAPKLLIYGASNLQSGVPSRFSGSGSGTDFTLTISSLQPEDFAVYYCQQYYGRPTTFGQGTKVEIKR | 0.03 nM | 0.8 | 
12 | Example 292 (antibody, human IgG1, kappa, V domains shown, linker-toxophore on cysteine S) VH: QVELVESGGGLVQPGGSLRLSCAASGFTFSSYGMSWVRQAPGKGLEWVSGISSLGSTTYYADSVKGRFTISRDNSKNTLYLQMNSLRAEDTAVYYCARTGSPGTFMHGDHWGQGTLVTVSS VL: DIQMTQSPSSLSASVGDRVTITCRASQDINNYLSWYQQKPGKAPKLLIYGASNLQSGVPSRFSGSGSGTDFTLTISSLQPEDFAVYYCQQYYGRPTTFGQGTKVEIKR | 223 nM | 35 | 
13 | Example 293 (antibody, human IgG1, kappa, V domains shown, linker-toxophore on cysteine S) VH: QVELVESGGGLVQPGGSLRLSCAASGFTFSSYGMSWVRQAPGKGLEWVSGISSLGSTTYYADSVKGRFTISRDNSKNTLYLQMNSLRAEDTAVYYCARTGSPGTFMHGDHWGQGTLVTVSS VL: DIQMTQSPSSLSASVGDRVTITCRASQDINNYLSWYQQKPGKAPKLLIYGASNLQSGVPSRFSGSGSGTDFTLTISSLQPEDFAVYYCQQYYGRPTTFGQGTKVEIKR | 0.1 nM | < 0.1 | 
14 | Example 299 (antibody, human IgG1, kappa, V domains shown, linker-toxophore on cysteine S) VH: QVELVESGGGLVQPGGSLRLSCAASGFTFSSYGMSWVRQAPGKGLEWVSGISSLGSTTYYADSVKGRFTISRDNSKNTLYLQMNSLRAEDTAVYYCARTGSPGTFMHGDHWGQGTLVTVSS VL: DIQMTQSPSSLSASVGDRVTITCRASQDINNYLSWYQQKPGKAPKLLIYGASNLQSGVPSRFSGSGSGTDFTLTISSLQPEDFAVYYCQQYYGRPTTFGQGTKVEIKR | 4.1 nM | 0.8 | 
15 | Example 285 (antibody, human IgG1, kappa, V domains shown, linker-toxophore on cysteine S) VH: QVELVESGGGLVQPGGSLRLSCAASGFTFSSYGMSWVRQAPGKGLEWVSGISSLGSTTYYADSVKGRFTISRDNSKNTLYLQMNSLRAEDTAVYYCARTGSPGTFMHGDHWGQGTLVTVSS VL: DIQMTQSPSSLSASVGDRVTITCRASQDINNYLSWYQQKPGKAPKLLIYGASNLQSGVPSRFSGSGSGTDFTLTISSLQPEDFAVYYCQQYYGRPTTFGQGTKVEIKR | 0.5 nM | 0.6 | 
16 | Example 297 (antibody, human IgG1, kappa, V domains shown, linker-toxophore on cysteine S) VH: QVELVESGGGLVQPGGSLRLSCAASGFTFSSYGMSWVRQAPGKGLEWVSGISSLGSTTYYADSVKGRFTISRDNSKNTLYLQMNSLRAEDTAVYYCARTGSPGTFMHGDHWGQGTLVTVSS VL: DIQMTQSPSSLSASVGDRVTITCRASQDINNYLSWYQQKPGKAPKLLIYGASNLQSGVPSRFSGSGSGTDFTLTISSLQPEDFAVYYCQQYYGRPTTFGQGTKVEIKR | < 0.01 nM | 0.02 | 
17 | Example 288 (antibody, human IgG1, kappa, V domains shown, linker-toxophore on cysteine S) VH: QVELVESGGGLVQPGGSLRLSCAASGFTFSSYGMSWVRQAPGKGLEWVSGISSLGSTTYYADSVKGRFTISRDNSKNTLYLQMNSLRAEDTAVYYCARTGSPGTFMHGDHWGQGTLVTVSS VL: DIQMTQSPSSLSASVGDRVTITCRASQDINNYLSWYQQKPGKAPKLLIYGASNLQSGVPSRFSGSGSGTDFTLTISSLQPEDFAVYYCQQYYGRPTTFGQGTKVEIKR | 39 nM | 12 | 
18 | Example 289 (antibody, human IgG1, kappa, V domains shown, linker-toxophore on cysteine S) VH: QVELVESGGGLVQPGGSLRLSCAASGFTFSSYGMSWVRQAPGKGLEWVSGISSLGSTTYYADSVKGRFTISRDNSKNTLYLQMNSLRAEDTAVYYCARTGSPGTFMHGDHWGQGTLVTVSS VL: DIQMTQSPSSLSASVGDRVTITCRASQDINNYLSWYQQKPGKAPKLLIYGASNLQSGVPSRFSGSGSGTDFTLTISSLQPEDFAVYYCQQYYGRPTTFGQGTKVEIKR | 49 nM | 78 | 
19 | Example 296 (antibody, human IgG1, kappa, V domains shown, linker-toxophore on cysteine S) VH: QVELVESGGGLVQPGGSLRLSCAASGFTFSSYGMSWVRQAPGKGLEWVSGISSLGSTTYYADSVKGRFTISRDNSKNTLYLQMNSLRAEDTAVYYCARTGSPGTFMHGDHWGQGTLVTVSS VL: DIQMTQSPSSLSASVGDRVTITCRASQDINNYLSWYQQKPGKAPKLLIYGASNLQSGVPSRFSGSGSGTDFTLTISSLQPEDFAVYYCQQYYGRPTTFGQGTKVEIKR | 0.4 nM | 0.6 | 
